Reference: paper PMC8126837 (Proceedings of the National Academy of Sciences of the …, 2021)

B1: WNb 2 (VHH)
VHH: QVQLQESGGGLVQPGGSLRLSCAVSGFTLDYYAIGWFRQAPGKEREGVSCISSSGGNTKYADSVKGRFTASRDNAKNTFYLQMNSLKPEDTAVYYCAAIAATYYSGSYYFQCPHDGMDYWGKGTQVTVSS
notes: source: expressed and purified
B2: WNb 36 (VHH)
VHH: QVQLQESGGGLVQPGGSLRLSCAVSGFTLDYYAIGWFRQAPGKEREGVSCISNSGGNTKYADSVKGRFTTSVDNAQNTVYLLMNSLEPEDTAVYYCAAIAATYYSGTYYYQCPHYGMDYWGKGTQVTVSS
B3: WNb 7 (VHH)
VHH: QVQLQESGGGLVQPGGSLRLSCAAPGFTFSSYAMGWFRQVPGKGLEWVSGIYSDGSTYYADSVKGRFTISRDNAKNTVYLQMNSLKPEDTAVYYCAKDRLEGSSWPERDFGSWGQGTQVTVSS
B4: WNb 15 (VHH)
VHH: QVQLQESGGGLVQPGGSLRLSCAASGFTFSSYLMGWFRQVPGKGLEWVSGIYSDGGTYYADSVKGRFTISRDNAKNTVYLQMNSLKPEDTAVYYCATDRMEGSSWPERDFGSWGQGTQVTVSS
B5: WNb 23 (VHH)
VHH: QVQLQESGGGLVQPGGSLRLSCAASGFTFKDYAMAWARQVPGKGLEWVSGIYSDGNTYYADSVKGRFTISRDNAKNTVYLRMNSLKPEDTAVYYCATERHPQGAADFGSWGQGTQVTVSS
notes: as for B1
B6: WNb 21 (VHH)
VHH: QVQLQESGGGLVQAGGSLTLTCAASERTFGRYVLAWFRQAPGKERELVARISRSTGSTFHADFVLGRFTISRDNAKNTVYLTMNNLKPEDTAVYYCAADKDGGLEYDYWGQGTQVTVSS
notes: as for B1

Target: SARS-CoV-2 receptor-binding domain (RBD), wild type (SARS-CoV-2, UniProt P0DTC2, DyLight 488 (NHS ester, about 1.9 dye/protein) in the FRET assay only)
Assay: BLI
Settings: both partners purified

Which Kd does the source give for B1 here?
Its Kd is less than 0.5 nM.

For B2, which Kd is on record?
Its Kd is less than 0.5 nM.

With B3 as the binder, how does the Kd read?
The Kd was less than 0.5 nM.

With B4 as the binder, how does the Kd read?
The Kd was less than 0.5 nM.

Target: T1, SARS-CoV receptor-binding domain (RBD) (SARS-CoV, UniProt P59594)
T1 construct: source: recombinant, purified
Assay: ELISA
Settings: both partners purified

Does B5 bind?
Result: binds

Does B6 bind?
Result: binds
